The text below walks through data of CN1930187A (ABGENIX INC, dated 2007).

To fix the notation:
B1: SC-EGFRvIII-XG1-131 (antibody, V domains shown)
VH: QVQLVESGGGVVQSGRSLRLSCAASGFTFRNYGMHWVRQAPGKGLEWVAVIWYDGSDKYYADSVRGRFTISRDNSKNTLYLQMNSLRAEDTAVYYCARDGYDILTGNPRDFDYWGQGTLVTVSS
VL: DTVMTQTPLSSHVTLGQPASISCRSSQSLVHSDGNTYLSWLQQRPGQPPRLLIYRISRRFSGVPDRFSGSGAGTDFTLEISRVEAEDVGVYYCMQSTHVPWTFGQGTKVEIK
notes: Recombinant human antibody (XenoMax)
B2: SC-EGFRvIII-XG1-250 (antibody, human IgG1, V domains shown)
VH: EGQLLESGGGWVQPGESLRLSCAASGFTFSSYAMSWVRQAPGKGLEWVSAISGSGGSTNYADSVKGRFTISRDNSKNTLYLQVNSLRVEDTAVYYCAGSSGWSEYWGQGTLVTVSS
VL: DIQMTQSPSSLSASVGDSVTITCRTSQGIRKNLGWYQQKPGKAPKRLIYAASSLQSGVPSRFSGSGSGTEFTLTISRLQPEDFATYYCLQHHSYPLTFGGGTRVEIR
notes: also called sc250; SC250
B3: AB-EGFRvIII-XG1K-13.1.2 (antibody, V domains shown)
VH: QVQLVESGGGVVQPGRSLRLSCAASGFTFSSYGMHWVRQAPGKGLEWVAVIWYDGSNKYYVDSVKGRFTISRDNSKNTLYLQMNSLRAEDTAVYYCARDGWQQLAPFDYWGQGTLVTVSS
VL: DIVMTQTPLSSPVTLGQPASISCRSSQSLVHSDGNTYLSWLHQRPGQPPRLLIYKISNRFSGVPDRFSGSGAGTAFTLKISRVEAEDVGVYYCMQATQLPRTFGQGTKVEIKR
notes: Human IgG1 kappa from a XenoMouse G1 hybridoma; Residue numbers of the mutants count on this running numbering
B4: SC-EGFRvIII-XG1-139 (antibody, human IgG1, V domains shown)
VH: B2 VH with G2V, L4V, W11L, E16G, V83M, V88A
VL: DIQMTQSPSSLSASVGDRVTITCRASQGIRNNLAWYQQKPGKAPKRLIYAASNLQSGVPSRFTGSGSGTEFTLIVSSLQPEDFATYYCLQHHSYPLTSGGGTKVEIK
B5: SC-EGFRvIII-XG2-170 (antibody, human IgG1, V domains shown)
VH: QVQLQQSGPGLVKPSQTLSLTCAISGDSVSSNNAAWNWIRQSPARGLEWLGRTYYRSKWYNDYVVSVKSRITINPDTSKNQFSLQLNSVTPEDTAVYYCVRATAFDYWGQGTLVTVSS
VL: AIVLTQTPLSSPVTLGQPASISCRSSQSLVHRDGNTYLSWLQQRPGQPPRLLIYKISNRFSGVPDRFSGSGAGTDFTLKISRVEPDDVGVYYCMHTTQLPWTFGQGTKVEIK
B6: SC-EGFRvIII-XG1-211 (antibody, human IgG1, V domains shown)
VH: QVQLVESGGGVVQPGRSLRLSCVASGFTLSSYGMHWVRQAPGKGLEWVAVTSYDGSKKDYADSAKGRFTISRDNSKNTLYLQMNSLRAEDTAVYYCVSEGYCSSSSCYKYYYYGMDVWGQGTTVTVSS
VL: DIVMTQSPLSLPVTPGEPASISCRSSQSLLYRNGNNYLDWYLQRPGQSPQLLIYLGSNRASGVPDRFSGSGSGTDFTLKISRVEAEDVGVYYCMQALQTPRTFGQGTKVEIK
B7: AB-EGFRvIII-XG1-095 (antibody, human IgG1, V domains shown)
VH: QVQLQESGPFLVKPSQTLSLTCTVSGGSISSGGYYWSWIRQHPGKGLEWIGFIYYRGNTYYNPSLKSRVTISVDTSKNQFSLKLSSVTAADTAVYYCARDGYCSRTGCYGGWFDPWGQGTLVTVSP
VL: DIVMTQTPLSSPVTLGQPASISCRSSQSLIHTDGNIYLSWLQQRPGQPPRLLIYKISNRFSGVPDRFSGSGAGTDFTLKISRVEAEDVGVYYCMQGTQFPITFGQGTRLEIK
B8: SC-EGFRvIII-XG2-150 (antibody, human IgG1, V domains shown)
VH: QVQLQQSGPGLVKPSQTLSLTCAISGDSVSSYSSAWNWIRQSPSRGLEWLGRAYHRSRWYYEYAVSVKSRINITPDTSKNQFSLQLNSVTPEDTAVYYCARGSRFDYWGQGTLVTVSS
VL: B5 VL with A1D, L4M, P85A, D86E, V90I, Y92F, L99F, K108R

Where a chain is given by its changes, count along the chain named.

One assay deals with T1, EGFRvIII PEP3 peptide conjugated to OVA (EGFRvIII肽-OVA) (human, Cys 14 coupled to maleimide-activated ovalbumin (peptide:OVA 14.5:1)).
T1 construct: also called EGFRvIII peptide-OVA; VIII-pep-OVA
T1 peptide: LEEKKGNYVVTDHC
The assay is described as follows: binding to pep3 (XenoMax screen).
For the molecule B1, the binding result is “binds”.
Still for that read-out and setting: the result for B2 reads “binds”.

The next assay has as its target EGFRvIII (full length, expressed by cells: NR6 M, H1477, 300.19/EGFRvIII) (human, UniProt P00533 298-1210). The assay is described as follows: cell-based or functional assay.
For B3, the “%内在化” value was determined as 82.5%.
In the case of B4, the “%内在化” value worked out at 80.8%.
With B2, the “%内在化” value came out at 16.7%.
Consider B5, for which the “%内在化” value is 20.1%.
On to B6, for which the “%内在化” value is 21.6%.
The same measure, in the same setting: the value for B7 was 72.4%; that for B8 was 20%.
